In publication doi:10.1101/2023.12.12.571160 one finds stoichiometry N data, which are given here for 2 substances.

The target in test [1] is prefusion-stabilized PRD-0038 S2 subunit trimer (PRD-0038 (clade 3 sarbecovirus)). In words: negative-stain EM.
Test [2] concerns the target prefusion-stabilized SARS-CoV-1 S2 subunit trimer (SARS-CoV-1). In words: negative-stain EM.

What is called stoichiometry N is a count of units in the complex or per binding partner.

“prefusion-stabilized PRD-0038 S2 subunit trimer (domain or fragment)”: in test [1], the stoichiometry N worked out at 3.
With “prefusion-stabilized SARS-CoV-1 S2 subunit trimer (domain or fragment)”, in test [2], the stoichiometry N amounted to 3.
